The results in this text go back to PMC7104408 (Proceedings of the National Academy of Sciences of the …, 2019).

Series [1] has as its target T1, LUXMYB (UniProt Q9SNB4 139-200).
T1 sequence: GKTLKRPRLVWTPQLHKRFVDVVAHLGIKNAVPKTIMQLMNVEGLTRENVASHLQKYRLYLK
Put plainly: crystal structure.

Series [2] has as its target T2, LUXMYB R146A (UniProt Q9SNB4 139-200, R146A).
T2 sequence: T1 sequence with R8A
The experiment in a line: EMSA.

For series [3], the target named is T3, LUXFL (UniProt Q9SNB4 1-323).
T3 sequence: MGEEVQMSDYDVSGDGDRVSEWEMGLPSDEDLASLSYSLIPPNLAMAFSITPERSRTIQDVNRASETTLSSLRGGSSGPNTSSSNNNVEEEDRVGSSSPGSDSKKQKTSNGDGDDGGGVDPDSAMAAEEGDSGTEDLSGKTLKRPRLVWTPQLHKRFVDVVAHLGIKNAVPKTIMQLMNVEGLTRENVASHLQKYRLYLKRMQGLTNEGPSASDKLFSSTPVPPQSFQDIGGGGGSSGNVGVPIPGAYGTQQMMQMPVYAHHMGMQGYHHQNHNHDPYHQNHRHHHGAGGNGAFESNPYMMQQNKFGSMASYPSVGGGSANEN
The experiment in a line: EMSA. For orientation: Mobility shift assays separate free from complexed probe on a gel.

Series [4] deals with T4, LUXFL R146A (UniProt Q9SNB4 1-323, R146A).
T4 sequence: T3 sequence with R146A
Put plainly: EMSA.

In series [5] the target is T1, LUXMYB. Put plainly: EMSA.
Series [6] has as its target T5, ELF3 (UniProt O82804 1-695).
T5 sequence: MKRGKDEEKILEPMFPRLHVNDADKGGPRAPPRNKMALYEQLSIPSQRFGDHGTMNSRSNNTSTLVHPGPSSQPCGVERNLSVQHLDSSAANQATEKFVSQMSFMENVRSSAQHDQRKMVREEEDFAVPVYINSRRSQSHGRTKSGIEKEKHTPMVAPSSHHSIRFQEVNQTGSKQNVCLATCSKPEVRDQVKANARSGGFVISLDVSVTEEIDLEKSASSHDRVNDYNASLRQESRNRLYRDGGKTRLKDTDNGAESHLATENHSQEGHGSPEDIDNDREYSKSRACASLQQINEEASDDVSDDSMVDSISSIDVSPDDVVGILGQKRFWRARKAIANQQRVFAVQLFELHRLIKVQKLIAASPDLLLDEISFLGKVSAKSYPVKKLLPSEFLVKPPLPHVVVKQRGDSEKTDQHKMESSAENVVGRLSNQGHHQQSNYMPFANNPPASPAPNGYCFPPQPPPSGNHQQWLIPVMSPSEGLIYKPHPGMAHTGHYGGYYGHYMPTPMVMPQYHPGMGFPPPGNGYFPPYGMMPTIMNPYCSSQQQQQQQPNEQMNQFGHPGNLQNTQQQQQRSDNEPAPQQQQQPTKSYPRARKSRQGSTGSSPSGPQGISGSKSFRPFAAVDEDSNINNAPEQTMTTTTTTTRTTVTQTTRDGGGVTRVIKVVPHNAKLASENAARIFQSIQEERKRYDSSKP
The experiment in a line: EMSA.

Series [7] concerns the target T6, ELF4 (UniProt O04211 1-111).
T6 sequence: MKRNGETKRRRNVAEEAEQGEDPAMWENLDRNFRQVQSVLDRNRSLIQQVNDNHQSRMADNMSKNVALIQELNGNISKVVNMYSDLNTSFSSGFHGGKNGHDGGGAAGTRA
The experiment in a line: EMSA.

For series [8], the target named is T7, LUXFL;ELF3;ELF4 (Arabidopsis thaliana?;Arabidopsis …, UniProt Q9SNB4;O82804;O04211 1-323;1-695;1-111, ||).
T7 sequence 1: T3 sequence
T7 sequence 2: T5 sequence
T7 sequence 3: T6 sequence
Put plainly: EMSA.

For series [9], the target named is T8, EARLY FLOWERING 3, full-length (Arabidopsis, UniProt O82804 1-695).
T8 sequence: T5 sequence
The experiment in a line: native gel or EMSA.

Series [10] has as its target T1, LUXMYB. Put plainly: crystal structure. This is another data set of the same source.

Numbering of substitutions follows the chain as printed. Like-named read-outs stand apart in the source and are kept apart here.

B1: crystal 10-mer ATATTCGA (dsDNA)
DNA 1: TATATTCGAA
DNA 2: ATTCGAATAT
As to B1, the binding result in series [1] is given as “binds”.

B2: Oligo 1 (PRR9 36 bp) (dsDNA)
DNA 1: ATGATGTCTTCTCAAGATTCGATAAAAATGGTGTTG
DNA 2: CAACACCATTTTTATCGAATCTTGAGAAGACATCAT
One may read the Kd as the free concentration of one partner at which half of the binding sites on the other are occupied at equilibrium, for simple one-to-one binding. For B2, the Kd in series [2] is 50 ± 2.4 nM; in series [3], 93 ± 5.8 nM; in series [4] it was 105 ± 11.8 nM; in series [5], 37 ± 2.9 nM. Also, the binding result in series [6] was “no binding”; in [7], “no binding”; in [8], “binds”.

B3: Oligo 3 (AAGATCTT) (dsDNA)
DNA 1: B2 DNA 1 with T19C, C20T, G21T
DNA 2: B2 DNA 2 with C16A, G17A, A18G
For the molecule B3, the Kd in series [2] came to 63 ± 3.1 nM; in series [3], 93 ± 3.5 nM; in series [4], 204 ± 6.7 nM; in series [5] it was 14 ± 1.8 nM.

B4: Oligo 2 (AGATACGC) (dsDNA)
DNA 1: B2 DNA 1 with T19A, A22C
DNA 2: B2 DNA 2 with T15G, A18T
Turning to B4, the Kd in series [2] turned out to be 50 ± 1.8 nM; in series [3], 98 ± 2.9 nM; in series [4], 336 ± 4.8 nM; in series [5], 6.5 ± 1.4 nM.

B5: Oligo 4 (GGATCCGA) (dsDNA)
DNA 1: ATGATGTCTTCTCGGATCCGATAAAAATGGTGTTG
DNA 2: CAACACCATTTTTATCGGATCCGAGAAGACATCAT
For B5, the Kd is 120 ± 1 nM in series [2], 118 ± 10.6 nM in series [3], 164 ± 4.2 nM in series [4] and 17 ± 2.1 nM in [5].

B6: Oligo 5 (ATATTCGA) (dsDNA)
DNA 1: ATGATGTCTTCTCGAATATTCGATAAAAATGGTGTTG
DNA 2: CAACACCATTTTTATCGAATATTCGAGAAGACATCAT
On to B6, for which the Kd in series [2] stood at 137 ± 13 nM; in series [3], 178 ± 3.5 nM; in series [5] it was 43 ± 4.2 nM.

B7: EARLY FLOWERING 4 (natural protein)
chain: T6 sequence
For the molecule B7, in series [9], the binding result is “binds”.

B8: crystal 10-mer AGATACGC (dsDNA)
DNA 1: TAGATACGCA
DNA 2: ATGCGTATCT
B8: the binding result in [10] is “binds”.
